Experimental data: patent US7276481B2, “Method and composition for treatment of skeletal dysplasias” (ProChon Biotech Ltd., priority 2001, dated 2007)
Read-outs that look alike come from different tables or passages of the source.

Molecular target: T1, natriuretic peptide receptor on C3H10T1/2 cells (Mus musculus, UniProt Q6VVW5)
T1 construct: endogenous in cells; host or cells: C3H10T1/2 cells
T1 sequence (Q6VVW5 23-1047 limits assumed): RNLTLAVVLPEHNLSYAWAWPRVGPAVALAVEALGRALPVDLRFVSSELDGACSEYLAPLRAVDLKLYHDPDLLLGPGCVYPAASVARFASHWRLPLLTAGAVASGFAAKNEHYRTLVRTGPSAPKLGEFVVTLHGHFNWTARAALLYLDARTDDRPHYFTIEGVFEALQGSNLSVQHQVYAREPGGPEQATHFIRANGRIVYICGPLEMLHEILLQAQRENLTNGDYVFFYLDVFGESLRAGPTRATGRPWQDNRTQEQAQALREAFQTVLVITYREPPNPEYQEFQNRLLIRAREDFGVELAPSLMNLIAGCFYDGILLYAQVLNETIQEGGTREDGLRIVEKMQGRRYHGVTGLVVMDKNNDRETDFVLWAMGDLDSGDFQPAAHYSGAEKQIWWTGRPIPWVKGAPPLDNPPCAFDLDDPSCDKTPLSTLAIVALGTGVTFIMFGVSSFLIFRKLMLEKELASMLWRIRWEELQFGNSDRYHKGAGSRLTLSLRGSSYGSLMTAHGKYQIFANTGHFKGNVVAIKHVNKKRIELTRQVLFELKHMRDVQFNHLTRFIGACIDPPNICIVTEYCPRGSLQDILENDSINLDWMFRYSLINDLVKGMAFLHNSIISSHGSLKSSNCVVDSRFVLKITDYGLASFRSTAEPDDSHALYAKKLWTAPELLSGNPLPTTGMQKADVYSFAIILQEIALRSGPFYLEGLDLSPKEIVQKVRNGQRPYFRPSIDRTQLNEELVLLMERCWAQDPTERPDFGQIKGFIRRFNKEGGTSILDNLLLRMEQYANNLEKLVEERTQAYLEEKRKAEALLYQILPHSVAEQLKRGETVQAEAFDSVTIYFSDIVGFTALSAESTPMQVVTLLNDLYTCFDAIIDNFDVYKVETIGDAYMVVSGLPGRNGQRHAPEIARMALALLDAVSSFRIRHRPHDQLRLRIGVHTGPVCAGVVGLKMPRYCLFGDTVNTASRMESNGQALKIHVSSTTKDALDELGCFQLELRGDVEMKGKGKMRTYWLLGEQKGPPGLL
Assay: Biotrak enzyme immunoassay of cGMP elicited on C3H10T1/2 cells
Assay type: cell-based
Method: All peptide variants were analyzed for activity using the Biotrak enzyme immunoassay (EIA, Amersham) that measures the amount of secondary messenger, cyclic GMP (cGMP), elicited after activation of the natriuretic peptide receptor by the peptide on C3H10T1/2 cells. Amino acid substitutions are marked in bold and underlined. The assay was performed for CNP and variants at a concentration of 10^−6 M. The values are given as the percent of relative binding compared to CNP, where CNP 1-22 and CNP 5-22 yield 100% binding.

[1] = Table 3, cGMP values at 10^-6 M, compared to CNP (CNP 1-22 and CNP 5-22 = 100%)
[2] = Table 2, cGMP assay, compared to CNP

cGMP response as percent of CNP [1] | cGMP response as percent of CNP [2] | Sequence | other results
62.117% |  | C F G L K L D R I G S G S G L G C (CFGLKLDRIGSGSGLGC; peptide variant) [SEQ ID NO:69] | 
6.255% |  | C L G L K L D R I G S M S G L G C (CLGLKLDRIGSMSGLGC; peptide variant) [SEQ ID NO:29] | 
27.811% |  | C F G L K L D R I G G M S G L G C (CFGLKLDRIGGMSGLGC; peptide variant) [SEQ ID NO:55] | 
−9.108% |  | C T G L K L D R I G S A S G L G C (CTGLKLDRIGSASGLGC; peptide variant) [SEQ ID NO:71] | 
11.953% |  | C F G L K L D Q I G S M S G L G C (CFGLKLDQIGSMSGLGC; peptide variant) [SEQ ID NO:50] | 
11.259% |  | C F G L K A D R I G S M S G L G C (CFGLKADRIGSMSGLGC; peptide variant) [SEQ ID NO:45] | 
27.103% |  | C F G L K L D R V G S M S G L G C (CFGLKLDRVGSMSGLGC; peptide variant) [SEQ ID NO:52] | 
21.543% |  | C F G L K L D K I G S M S G L G C (CFGLKLDKIGSMSGLGC; peptide variant) [SEQ ID NO:49] | 
 | 21.7% | C H F G L K L D R I G S M A - - C (CHFGLKLDRIGSMAC; peptide variant) [SEQ ID NO:12] | 
49.202% |  | C F G L K L D R I G S M S K L G C (CFGLKLDRIGSMSKLGC; peptide variant) [SEQ ID NO:60] | 
88.117% |  | C F G L K I D R I G S M S G L G C (CFGLKIDRIGSMSGLGC; peptide variant) [SEQ ID NO:46] | 
 | 11.9% | C H F G L K L D R I G S - - - - C (CHFGLKLDRIGSC; peptide variant) [SEQ ID NO:20] | 
27.430% |  | C F G L K L D R I G N M S G L G C (CFGLKLDRIGNMSGLGC; peptide variant) [SEQ ID NO:57] | 
3.933% |  | C A G L K L D R I G S A S G L G C (CAGLKLDRIGSASGLGC; peptide variant) [SEQ ID NO:25] | 
 | 49.1% | C F G L K L A R I G S M S G L G C (CFGLKLARIGSMSGLGC; peptide variant) [SEQ ID NO:7] | 
64.212% |  | C F G V K L D R I G S M S G L G C (CFGVKLDRIGSMSGLGC; peptide variant) [SEQ ID NO:42] | 
 | 20.6% | C F G L K L D R I G A Q S - - - C (CFGLKLDRIGAQSC; peptide variant) [SEQ ID NO:15] | 
−1.111% |  | C F G L K L D R I G S M S G A G C (CFGLKLDRIGSMSGAGC; peptide variant) [SEQ ID NO:63] | 
5.421% |  | C F G L M L D R I G S M S G L G C (CFGLMLDRIGSMSGLGC; peptide variant) [SEQ ID NO:44] | 
−5.848% |  | C A G L K L A R I G S M S G L G C (CAGLKLARIGSMSGLGC; peptide variant) [SEQ ID NO:24] | 
−1.341% |  | C M G L K L D R I G S M S G L G C (CMGLKLDRIGSMSGLGC; peptide variant) [SEQ ID NO:30] | 

cGMP response as percent of CNP [1] | cGMP response as percent of CNP [2] | Sequence | other results
66.910% |  | C F G L K L D R I G S K S G L G C (CFGLKLDRIGSKSGLGC; peptide variant) [SEQ ID NO:67] | 
 | 4.2% | C F G L K L D R I G - - - - - - C (CFGLKLDRIGC; peptide variant) [SEQ ID NO:22] | 
−10.145% |  | C F G L K L D R I G S M S G G G C (CFGLKLDRIGSMSGGGC; peptide variant) [SEQ ID NO:64] | 
 | 43.8% | C A G L K L D R I G S M S G L G C (CAGLKLDRIGSMSGLGC; peptide variant) [SEQ ID NO:6] | 
−17.095% |  | C F G L K L Q R I G S M S G L G C (CFGLKLQRIGSMSGLGC; peptide variant) [SEQ ID NO:36] | 
13.899% |  | C I G L K L D R I G S M S G L G C (CIGLKLDRIGSMSGLGC; peptide variant) [SEQ ID NO:28] | 
54.469% |  | C F G L K L D R I G A M S G L G C (CFGLKLDRIGAMSGLGC; peptide variant) [SEQ ID NO:54] | 
66.450% |  | C F G L K L D R I G S W S G L G C (CFGLKLDRIGSWSGLGC; peptide variant) [SEQ ID NO:65] | 
29.744% |  | C F G L L L D R I G S M S G L G C (CFGLLLDRIGSMSGLGC; peptide variant) [SEQ ID NO:43] | 
17.235% |  | C F G L K L N R I G S M S G L G C (CFGLKLNRIGSMSGLGC; peptide variant) [SEQ ID NO:37] | 
100.000% | 127.4% | C F G L K L D R I G S M S G L G C (CFGLKLDRIGSMSGLGC) [SEQ ID NO:2] | activity in cGMP assay (in words): active; cGMP response as percent of CNP (Table 3, cGMP values at 10^-6 M, compared to CNP (CNP 1-22 and CNP 5-22 = 100%), listed as CNP 5-22): 100%; activity in cGMP assay (in words) (listed as SEQ ID NO: 2): as active as the native CNP1-22
 | 18.4% | C F G L K L D A I G S M S G L G C (CFGLKLDAIGSMSGLGC; peptide variant) [SEQ ID NO:8] | 
66.222% |  | C F G L K L D R I G S H S G L G C (CFGLKLDRIGSHSGLGC; peptide variant) [SEQ ID NO:66] | 
 | 3.8% | C F G L K L D R I G A Q - - - - C (CFGLKLDRIGAQC; peptide variant) [SEQ ID NO:19] | 
 | 26.5% | C H F G L K L D R I G A Q S - - C (CHFGLKLDRIGAQSC; peptide variant) [SEQ ID NO:13] | 
5.699% |  | C H G L K L D R I G S M S G L G C (CHGLKLDRIGSMSGLGC; peptide variant) [SEQ ID NO:33] | 
 | 11.8% | C F G L K L D R I G S Q - - - - C (CFGLKLDRIGSQC; peptide variant) [SEQ ID NO:18] | 
13.482% |  | C F G L K L D H I G S M S G L G C (CFGLKLDHIGSMSGLGC; peptide variant) [SEQ ID NO:48] | 
 | 22.7% | C F G L K L D R I G S - - - - - C (CFGLKLDRIGSC; peptide variant) [SEQ ID NO:21] | 
5.740% |  | C V G L K L D R I G S M S G L G C (CVGLKLDRIGSMSGLGC; peptide variant) [SEQ ID NO:32] | 
20.154% |  | C F G A K L D R I G S M S G L G C (CFGAKLDRIGSMSGLGC; peptide variant) [SEQ ID NO:40] | 

Sequence | cGMP response as percent of CNP [1] | cGMP response as percent of CNP [2] | other results
C H F G L K L D R I - - - - - - C (CHFGLKLDRIC; peptide variant) [SEQ ID NO:23] |  | 3.8% | 
